In paper doi:10.1101/567099 (bioRxiv, 2019):

How the values were obtained:
SEC = molecular target: the molecule itself; assay: SEC
[1] = molecular target: the molecule itself; assay: negative-stain electron microscopy

Protein	binding result (SEC)	binding result [1]
MBP-TorsinA (human TorsinA residues 51-332, N-terminal MBP tag) (domain or fragment) GQKRSLSREALQKDLDDNLFGQHLAKKIILNAVFGFINNPKPKKPLTLSLHGWTGTGKNFVSKIIAENIYEGGLNSDYVHLFVATLHFPHASNITLYKDQLQLWIRGNVSACARSIFIFDEMDKMHAGLIDAIKPFLDYYDLVDGVSYQKAMFIFLSNAGAERITDVALDFWRSGKQREDIKLKDIEHALSVSVFNNKNSGFWHSSLIDRNLIDYFVPFLPLEYKHLKMCIRVEMQSRGYEIDEDIVSRVAEEMTFFPKEERVFSDKGCKTVFTKLDYYYDD	binds	–
TorsinA H140N (human, residues 51-332) (domain or fragment) GQKRSLSREALQKDLDDNLFGQHLAKKIILNAVFGFINNPKPKKPLTLSLHGWTGTGKNFVSKIIAENIYEGGLNSDYVHLFVATLHFPNASNITLYKDQLQLWIRGNVSACARSIFIFDEMDKMHAGLIDAIKPFLDYYDLVDGVSYQKAMFIFLSNAGAERITDVALDFWRSGKQREDIKLKDIEHALSVSVFNNKNSGFWHSSLIDRNLIDYFVPFLPLEYKHLKMCIRVEMQSRGYEIDEDIVSRVAEEMTFFPKEERVFSDKGCKTVFTKLDYYYDD	–	binds
TorsinA K174E (human, residues 51-332) (domain or fragment) GQKRSLSREALQKDLDDNLFGQHLAKKIILNAVFGFINNPKPKKPLTLSLHGWTGTGKNFVSKIIAENIYEGGLNSDYVHLFVATLHFPHASNITLYKDQLQLWIRGNVSACARSIFIFDEMDEMHAGLIDAIKPFLDYYDLVDGVSYQKAMFIFLSNAGAERITDVALDFWRSGKQREDIKLKDIEHALSVSVFNNKNSGFWHSSLIDRNLIDYFVPFLPLEYKHLKMCIRVEMQSRGYEIDEDIVSRVAEEMTFFPKEERVFSDKGCKTVFTKLDYYYDD	–	binds
TorsinA (human, residues 51-332) after cleavage of the MBP tag with 3C protease (domain or fragment) GQKRSLSREALQKDLDDNLFGQHLAKKIILNAVFGFINNPKPKKPLTLSLHGWTGTGKNFVSKIIAENIYEGGLNSDYVHLFVATLHFPHASNITLYKDQLQLWIRGNVSACARSIFIFDEMDKMHAGLIDAIKPFLDYYDLVDGVSYQKAMFIFLSNAGAERITDVALDFWRSGKQREDIKLKDIEHALSVSVFNNKNSGFWHSSLIDRNLIDYFVPFLPLEYKHLKMCIRVEMQSRGYEIDEDIVSRVAEEMTFFPKEERVFSDKGCKTVFTKLDYYYDD	–	binds
TorsinA K174A (human, residues 51-332) (domain or fragment) GQKRSLSREALQKDLDDNLFGQHLAKKIILNAVFGFINNPKPKKPLTLSLHGWTGTGKNFVSKIIAENIYEGGLNSDYVHLFVATLHFPHASNITLYKDQLQLWIRGNVSACARSIFIFDEMDAMHAGLIDAIKPFLDYYDLVDGVSYQKAMFIFLSNAGAERITDVALDFWRSGKQREDIKLKDIEHALSVSVFNNKNSGFWHSSLIDRNLIDYFVPFLPLEYKHLKMCIRVEMQSRGYEIDEDIVSRVAEEMTFFPKEERVFSDKGCKTVFTKLDYYYDD	–	binds
